Assay results taken from US20080318834A1, “Antimicrobial Lactoferrin Compositions for Surfaces, Cavities, and Foodstuff” (priority 2004, published 2008).

Columns and labels:
[1] = test system: E. coli ATCC 43895 (E. coli O157:H7); test: in vitro Tryptic Soy Broth (TSB) growth inhibition assay (Bioscreen C, OD 420-580 nm); format: cell-based, Escherichia coli
[2] = test system: Ps. aeruginosa (Pak strain); test: in vitro growth inhibition assay in Luria Broth Base (LB) (Bioscreen C, OD 420-580 nm); format: cell-based, Pseudomonas aeruginosa; details: 2% (w/v) LF in PBS, sample pH of 1.7 or lower; 200 CFU's/well (200 CFU's:1 mg LF); FIG. 1B

B1: lactoferrin (protein, UniProt P02788 20-710, looked up)
Lactotransferrin: GRRRSVQWCAVSQPEATKCFQWQRNMRKVRGPPVSCIKRDSPIQCIQAIAENRADAVTLDGGFIYEAGLAPYKLRPVAAEVYGTERQPRTHYYAVAVVKKGGSFQLNELQGLKSCHTGLRRTAGWNVPIGTLRPFLNWTGPPEPIEAAVARFFSASCVPGADKGQFPNLCRLCAGTGENKCAFSSQEPYFSYSGAFKCLRDGAGDVAFIRESTVFEDLSDEAERDEYELLCPDNTRKPVDKFKDCHLARVPSHAVVARSVNGKEDAIWNLLRQAQEKFGKDKSPKFQLFGSPSGQKDLLFKDSAIGFSRVPPRIDSGLYLGSGYFTAIQNLRKSEEEVAARRARVVWCAVGEQELRKCNQWSGLSEGSVTCSSASTTEDCIALVLKGEADAMSLDGGYVYTAGKCGLVPVLAENYKSQQSSDPDPNCVDRPVEGYLAVAVVRRSDTSLTWNSVKGKKSCHTAVDRTAGWNIPMGLLFNQTGSCKFDEYFSQSCAPGSDPRSNLCALCIGDEQGENKCVPNSNERYYGYTGAFRCLAENAGDVAFVKDVTVLQNTDGNNNEAWAKDLKLADFALLCLDGKRKPVTEARSCHLAMAPNHAVVSRMDKVERLKQVLLHQQAKFGRNGSDCPDKFCLFQSETKNLLFNDNTECLARLHGKTTYEKYLGPQYVAGITNLKKCSTSPLLEACEFLRK
**Q.** What does the source list for B1?
**A.** time for which E. coli growth was inhibited ([1]; 2% (w/v) LF in PBS, test sample pH below 2.5, 530 CFU's:1 mg LF, 37° C., FIG. 1A): at least 60 hours; antimicrobial activity on E. coli O157:H7 as function of EDTA concentration ([1]; 2% (w/v) LF in demi water, 0-1 mM EDTA, pH about 5 not adjusted, 270 CFU's:1 mg LF, FIG. 2): increases with increasing EDTA concentration; time for which growth of Pseudomonas aeruginosa is inhibited [2]: at least 45 hours
